{
  "source": "patent US6683057",
  "biological_target": "Gβγ (βγ subunit of the heterotrimeric G protein) (rabbit)",
  "experiment": "cell-based or functional assay",
  "data": [
    {"substance": "βARKCT (βARK-1-(495-689) polypeptide; Met-Gly495-Leu689 of bovine β-adrenergic receptor kinase-1) (from UniProt P21146 495-689)", "values": [
      {"measurement": "EGF activation of MAP kinase in cultured vascular smooth muscle cells (versus empty virus treated cells)", "result": -7, "unit": "%"},
      {"measurement": "LPA activation of MAP kinase in cultured vascular smooth muscle cells (versus empty virus treated cells)", "result": -58, "unit": "%"},
      {"measurement": "basal MAP kinase activity in cultured vascular smooth muscle cells (versus empty virus treated cells)", "result": 18, "unit": "%"},
      {"measurement": "serum activation of MAP kinase in cultured vascular smooth muscle cells (versus empty virus treated cells)", "result": -38, "unit": "%"}
    ]}
  ]
}
